Source: US20160291016

Molecular target: T1, phosphatidylinositol(4) phosphate 5 kinase type 1 gamma (PIPK1γ) of mouse osteoblasts, O70161
T1 chain: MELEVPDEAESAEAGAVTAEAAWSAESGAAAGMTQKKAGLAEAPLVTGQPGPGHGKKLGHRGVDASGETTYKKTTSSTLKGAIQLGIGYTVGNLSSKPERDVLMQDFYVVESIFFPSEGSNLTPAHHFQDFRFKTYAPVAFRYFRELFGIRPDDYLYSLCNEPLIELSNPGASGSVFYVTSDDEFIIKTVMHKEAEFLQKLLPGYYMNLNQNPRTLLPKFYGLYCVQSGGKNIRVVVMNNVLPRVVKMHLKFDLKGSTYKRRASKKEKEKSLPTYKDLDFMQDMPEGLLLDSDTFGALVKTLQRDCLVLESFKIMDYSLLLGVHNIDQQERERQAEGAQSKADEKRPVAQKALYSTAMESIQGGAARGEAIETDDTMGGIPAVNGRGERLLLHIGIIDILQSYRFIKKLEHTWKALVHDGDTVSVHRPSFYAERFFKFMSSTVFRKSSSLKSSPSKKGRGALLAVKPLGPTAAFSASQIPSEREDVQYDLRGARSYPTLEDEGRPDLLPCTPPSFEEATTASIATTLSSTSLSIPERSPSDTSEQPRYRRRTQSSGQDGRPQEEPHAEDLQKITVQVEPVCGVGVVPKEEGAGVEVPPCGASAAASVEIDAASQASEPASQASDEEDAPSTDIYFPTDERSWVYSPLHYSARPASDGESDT

B1: protein tyrosine phosphatase µ (PTPµ) of mouse osteoblasts (protein)
chain: ETFSGGCLFDEPYSTCGYSQADEDDFNWEQVNTLTKPTSDPWMPSGSFMLVNTSGKPEGQRAHLLLPQLKENDTHCIDFHYFVSSKSNAAPGLLNVYVKVNNGPLGNPIWNISGDPTRTWHRAELAISTFWPNFYQVIFEVVTSGHQGYLAIDEVKVLGHPCTRTPHFLRIQNVEVNAGQFATFQCSAIGRTVAGDRLWLQGIDVRDAPLKEIKVTSSRRFIASFNVVNTTKRDAGKYRCMICTEGGVGISNYAELVVKEPPVPIAPPQLASVGATYLWIQLNANSINGDGPIVAREVEYCTASGSWNDRQPVDSTSYKIGHLDPDTEYEISVLLTRPGEGGTGSPGPALRTRTKCADPMRGPRKLEVVEVKSRQITIRWEPFGYNVTRCHSYNLTVHYGYQVGGQEQVREEVSWDTDNSHPQHTITNLSPYTNVSVKLILMNPEGRKESQELTVQTDEDLPGAVPTESIQGSAFEEKIFLQWREPTQTYGVITLYEITYKAVSSFDPEIDLSNQSGRVSKLGNETHFLFFGLYPGTTYSFTIRASTAKGFGPPATNQFTTKISAPSMPAYEFETPLNQTDNTVTVMLKPAQSRGAPVSVYQIVVEEERPRRTKKTTEILKCYPVPIHFQNASILNSQYYFAAEFPADSLQAAQPFTIGDNKTYNGYWNTPLLPHKSYRIYYQAASRANGETKIDCVRVATKGAVTPKPVPEPEKQTDHTVKIAGVIAGILLFVIIFLGVVLVMKKRKLAKKRKETMSSTRQEMTVMVNSMDKSYAEQGTNCDEAFSFMGTHNLNGRSVSSPSSFTMKTNTLSTSVPNSYYPDETHTMASDTSSLAQPHTYKKREAADVPYQTGQLHPAIRVADLLQHITQMKCAEGYGFKEEYESFFEGQSAPWDSAKKDENRMKNRYGNIIAYDHSRVRLQMLEGDNNSDYINGNYIDGYHRPNHYIATQGPMQETIYDFWRMVWHENTASIIMVTNLVEVGRVKCCKYWPDDTEIYKDIKVTLIDTELLAEYVIRTFAVEKRGIHEIREIRQFHFTGWPDHGVPYHATGLLGFVRQVKSKSPPNAGPLVVHCSAGAGRTGCFIVIDIMLDMAEREGVVDIYNCVRELRSRRVNMVQTEEQYVFIHDAILEACLCGDTSIPASQVRSLYYDMNKLDPQTNSSQIKEEFRTLNMVTPTLRVEDCSIALLPRNHEKNRCMDILPPDRCLPFLITIDGESSNYINAALMDSYKQPSAFIVTQHPLPNTVKDFWRLVLDYHCTSVVMLNDVDPAQLCPQYWPENGVHRHGPIQVEFVSADLEEDIISRIFRIYNASRPQDGHRMVQQFQFLGWPMYRDTPVSKRSFLKLIRQVDKWQEEYNGGEGRTVVHCLNGGGRSGTFCAISIVCEMLRHQRTVDVFHAVKTLRNNKPNMVDLLDQYKFCYEVALEYLNSG
With B1 as the protein, how does the “tyrosine phosphorylation of PIPK1γ (immunoprecipitation with PIPK1γ antibody, blot with phospho-tyrosine antibody)” value read?
Its value is “Phosphorylation levels of PIPK1γ were higher in osteoblasts from PTPµ^-/- than in those from WT mice”.
